This is an account of results in paper PMC3544819, “Pax6 Interactions with Chromatin and Identification of Its Novel Direct Target Genes in Lens and Forebrain”.

In this data set the target is Pax6 PD/HD (UniProt P63015 4-269). The data set is described as follows: EMSA; not given in the material. The conditions noted are these: protein: recombinant; blunt. Background: Mobility shift assays separate free from complexed probe on a gel.
Chain of Pax6 PD/HD (P63015 4-269): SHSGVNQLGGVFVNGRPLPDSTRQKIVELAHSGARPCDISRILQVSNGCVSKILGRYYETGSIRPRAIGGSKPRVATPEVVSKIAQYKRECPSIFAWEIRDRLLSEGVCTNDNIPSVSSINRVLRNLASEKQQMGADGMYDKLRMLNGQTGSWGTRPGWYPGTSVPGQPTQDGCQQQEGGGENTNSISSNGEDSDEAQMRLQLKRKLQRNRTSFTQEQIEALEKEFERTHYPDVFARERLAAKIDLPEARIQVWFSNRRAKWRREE

B1: Kif1b site 1 (dsDNA)
DNA 1: ATGACCAATAGTAAAGCGTGGCTGGAAGAGGGG
DNA 2: CCCCTCTTCCAGCCACGCTTTACTATTGGTCAT
For B1, the binding result is on record as “binds”.

B2: Kif1b site 2 (dsDNA)
DNA 1: TAGGAAGCTTTCTGCTGGATACACTCATGCCTGAGCGTG
DNA 2: CACGCTCAGGCATGAGTGTATCCAGCAGAAAGCTTCCTA
For B2, the binding result is “binds”.
